Tests used:
[1] = molecular target: T1, mouse glutamate receptor A4 amino-terminal domain (mouse, UniProt Q9Z2W8 21-420); assay: SPR
T1 sequence (looked up): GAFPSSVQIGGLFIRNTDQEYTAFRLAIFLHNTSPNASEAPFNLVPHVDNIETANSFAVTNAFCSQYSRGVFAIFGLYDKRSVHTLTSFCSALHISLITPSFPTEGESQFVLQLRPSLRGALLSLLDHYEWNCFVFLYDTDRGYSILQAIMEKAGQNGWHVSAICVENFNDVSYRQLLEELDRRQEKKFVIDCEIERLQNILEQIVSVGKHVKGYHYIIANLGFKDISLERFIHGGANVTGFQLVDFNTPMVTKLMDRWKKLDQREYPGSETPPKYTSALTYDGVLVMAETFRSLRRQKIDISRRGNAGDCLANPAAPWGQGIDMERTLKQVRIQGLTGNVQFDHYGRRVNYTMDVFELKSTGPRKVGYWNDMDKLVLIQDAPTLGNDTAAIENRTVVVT

[2] = molecular target: T2, human glutamate receptor D2 amino-terminal domain (human, UniProt O43424 24-440); assay: SPR
T2 sequence (looked up): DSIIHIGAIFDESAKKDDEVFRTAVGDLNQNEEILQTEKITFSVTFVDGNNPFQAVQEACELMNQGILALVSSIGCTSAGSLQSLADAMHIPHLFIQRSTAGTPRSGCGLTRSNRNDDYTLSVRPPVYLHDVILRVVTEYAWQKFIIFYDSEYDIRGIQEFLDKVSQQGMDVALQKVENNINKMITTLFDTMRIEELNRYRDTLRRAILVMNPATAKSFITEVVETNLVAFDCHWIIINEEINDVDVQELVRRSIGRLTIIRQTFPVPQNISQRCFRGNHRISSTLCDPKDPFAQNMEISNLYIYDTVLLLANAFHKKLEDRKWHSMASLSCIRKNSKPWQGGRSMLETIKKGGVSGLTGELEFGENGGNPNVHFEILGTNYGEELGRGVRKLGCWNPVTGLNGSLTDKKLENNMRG

Binder | Kd [1] [µM] | Kd [2] [µM]
pentraxin domain of human neuronal pentraxin-1, biotinylated on a C-terminal Avitag (immobilised in SPR) (domain or fragment, UniProt Q15818 224-431, looked up, biotin on the Avitag (in vivo biotinylation by BirA)) PGDKFQLTFPLRTNYMYAKVKKSLPEMYAFTVCMWLKSSATPGVGTPFSYAVPGQANELVLIEWGNNPMEILINDKVAKLPFVINDGKWHHICVTWTTRDGVWEAYQDGTQGGSGENLAPYHPIKPQGVLVLGQEQDTLGGGFDATQAFVGELAHFNIWDRKLTPGEVYNLATCSTKALSGNVIAWAESHIEIYGGATKWTFEACRQI | 11 ± 0.9 | 
Cbln1, biotinylated on a C-terminal Avitag (immobilised in SPR) (natural protein, UniProt P23435 22-193, looked up, biotin on the Avitag (in vivo biotinylation by BirA)) QNETEPIVLEGKCLVVCDSNPTSDPTGTALGISVRSGSAKVAFSAIRSTNHEPSEMSNRTMIIYFDQVLVNIGNNFDSERSTFIAPRKGIYSFNFHVVKVYNRQTIQVSLMLNGWPVISAFAGDQDVTREAASNGVLIQMEKGDRAYLKLERGNLMGGWKYSTFSGFLVFPL |  | > 100
